This is an account of results in patent US20240261333A1, “NOVEL TARGETS FOR ENHANCING ANTI-TUMOR IMMUNITY” (THE BROAD INSTITUTE, INC., priority 2021, published 2024).

Targets include YWHAZ (UniProt P63104); ATP5F1B (UniProt P06576); HBA1 (UniProt P69905); SSR1 (UniProt P43307); RPL36 (UniProt Q9Y3U8); PCMT1 (UniProt P22061); ACTR3 (UniProt P61158); ATXN2L (UniProt Q8WWM7); YBX3 (UniProt P16989); RPN1 (UniProt P04843).
What all share (assay): co-IP with anti-FLAG, mass spectrometry; C-FLAG B3GNT2

ATXN2L, sequence (Q8WWM7 whole entry): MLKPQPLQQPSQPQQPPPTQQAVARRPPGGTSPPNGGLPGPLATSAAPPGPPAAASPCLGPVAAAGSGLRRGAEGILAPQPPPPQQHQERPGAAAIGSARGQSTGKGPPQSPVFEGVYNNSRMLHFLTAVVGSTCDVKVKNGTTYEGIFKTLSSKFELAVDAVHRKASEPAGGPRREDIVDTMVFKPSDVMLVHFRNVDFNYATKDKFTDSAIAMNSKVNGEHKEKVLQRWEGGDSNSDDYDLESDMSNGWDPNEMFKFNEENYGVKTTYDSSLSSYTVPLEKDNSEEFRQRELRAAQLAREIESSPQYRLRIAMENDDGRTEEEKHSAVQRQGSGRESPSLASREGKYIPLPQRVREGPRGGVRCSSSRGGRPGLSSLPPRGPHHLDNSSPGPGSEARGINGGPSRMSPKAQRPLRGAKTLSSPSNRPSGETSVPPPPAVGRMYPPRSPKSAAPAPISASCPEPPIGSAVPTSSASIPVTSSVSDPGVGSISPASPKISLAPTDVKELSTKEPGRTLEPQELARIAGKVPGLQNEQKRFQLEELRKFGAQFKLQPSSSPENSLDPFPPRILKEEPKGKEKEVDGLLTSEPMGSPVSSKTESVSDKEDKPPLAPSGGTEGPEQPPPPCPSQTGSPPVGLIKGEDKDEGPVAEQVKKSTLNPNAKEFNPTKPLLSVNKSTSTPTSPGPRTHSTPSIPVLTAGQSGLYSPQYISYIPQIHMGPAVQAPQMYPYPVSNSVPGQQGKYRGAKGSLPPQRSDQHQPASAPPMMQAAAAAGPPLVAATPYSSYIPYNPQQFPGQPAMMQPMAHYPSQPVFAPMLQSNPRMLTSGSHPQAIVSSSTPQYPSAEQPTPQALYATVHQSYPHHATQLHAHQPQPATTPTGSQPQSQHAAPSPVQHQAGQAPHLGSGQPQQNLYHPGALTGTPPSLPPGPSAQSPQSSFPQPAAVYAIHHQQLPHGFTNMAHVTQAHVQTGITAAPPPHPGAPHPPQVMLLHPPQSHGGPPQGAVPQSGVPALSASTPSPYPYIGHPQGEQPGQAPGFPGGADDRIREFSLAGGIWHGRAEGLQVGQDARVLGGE
ATP5F1B, sequence (P06576 48-529 limits assumed): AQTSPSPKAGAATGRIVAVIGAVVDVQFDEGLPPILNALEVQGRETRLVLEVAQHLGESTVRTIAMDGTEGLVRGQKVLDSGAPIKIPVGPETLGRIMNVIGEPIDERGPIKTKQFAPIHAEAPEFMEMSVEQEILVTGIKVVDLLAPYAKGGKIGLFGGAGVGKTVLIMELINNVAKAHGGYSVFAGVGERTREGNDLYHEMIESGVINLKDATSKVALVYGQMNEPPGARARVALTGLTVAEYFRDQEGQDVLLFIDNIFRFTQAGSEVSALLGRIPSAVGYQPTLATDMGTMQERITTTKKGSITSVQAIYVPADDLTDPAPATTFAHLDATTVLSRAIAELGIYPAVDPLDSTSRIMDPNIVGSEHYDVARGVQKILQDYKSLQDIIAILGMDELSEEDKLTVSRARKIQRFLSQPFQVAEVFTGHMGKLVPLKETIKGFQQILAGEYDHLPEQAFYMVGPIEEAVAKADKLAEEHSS
YBX3, sequence (P16989 2-372 limits assumed): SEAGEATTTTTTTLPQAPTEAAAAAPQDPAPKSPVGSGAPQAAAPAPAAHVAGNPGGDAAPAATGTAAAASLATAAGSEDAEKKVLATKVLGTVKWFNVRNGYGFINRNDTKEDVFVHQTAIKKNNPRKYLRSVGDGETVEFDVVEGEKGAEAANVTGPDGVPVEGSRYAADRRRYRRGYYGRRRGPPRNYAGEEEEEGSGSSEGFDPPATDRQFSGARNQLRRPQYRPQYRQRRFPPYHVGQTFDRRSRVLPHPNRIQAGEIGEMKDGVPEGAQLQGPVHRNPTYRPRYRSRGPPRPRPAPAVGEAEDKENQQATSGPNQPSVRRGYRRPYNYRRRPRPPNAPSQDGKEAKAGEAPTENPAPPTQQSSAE
HBA1, sequence (P69905 2-142 limits assumed): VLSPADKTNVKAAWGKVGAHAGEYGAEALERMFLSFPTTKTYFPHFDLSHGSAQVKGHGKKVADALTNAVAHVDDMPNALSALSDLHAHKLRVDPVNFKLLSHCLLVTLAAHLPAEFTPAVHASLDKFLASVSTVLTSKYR
RPN1, sequence (P04843 24-607 limits assumed): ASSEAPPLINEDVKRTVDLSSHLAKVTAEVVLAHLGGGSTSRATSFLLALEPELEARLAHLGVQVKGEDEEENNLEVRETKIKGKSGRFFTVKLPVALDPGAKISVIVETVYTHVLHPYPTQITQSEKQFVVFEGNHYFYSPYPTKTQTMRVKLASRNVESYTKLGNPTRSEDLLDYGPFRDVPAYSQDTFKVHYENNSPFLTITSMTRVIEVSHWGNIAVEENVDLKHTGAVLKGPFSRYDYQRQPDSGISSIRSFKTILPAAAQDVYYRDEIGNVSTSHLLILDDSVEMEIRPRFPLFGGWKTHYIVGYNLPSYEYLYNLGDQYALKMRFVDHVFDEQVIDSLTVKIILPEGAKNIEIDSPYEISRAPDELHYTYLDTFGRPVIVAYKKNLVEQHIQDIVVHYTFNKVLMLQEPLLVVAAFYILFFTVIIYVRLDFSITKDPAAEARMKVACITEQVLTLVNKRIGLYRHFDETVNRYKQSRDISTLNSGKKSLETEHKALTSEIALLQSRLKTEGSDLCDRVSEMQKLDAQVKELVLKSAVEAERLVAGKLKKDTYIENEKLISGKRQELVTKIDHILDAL
SSR1, sequence (P43307 19-286 limits assumed): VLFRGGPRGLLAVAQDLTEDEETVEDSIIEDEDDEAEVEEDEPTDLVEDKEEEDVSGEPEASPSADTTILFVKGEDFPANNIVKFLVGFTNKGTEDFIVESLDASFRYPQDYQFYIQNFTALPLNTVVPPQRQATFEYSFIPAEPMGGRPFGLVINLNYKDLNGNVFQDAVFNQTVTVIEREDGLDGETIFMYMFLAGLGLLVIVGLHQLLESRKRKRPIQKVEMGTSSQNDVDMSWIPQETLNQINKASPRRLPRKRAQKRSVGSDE
YWHAZ, sequence (P63104 whole entry): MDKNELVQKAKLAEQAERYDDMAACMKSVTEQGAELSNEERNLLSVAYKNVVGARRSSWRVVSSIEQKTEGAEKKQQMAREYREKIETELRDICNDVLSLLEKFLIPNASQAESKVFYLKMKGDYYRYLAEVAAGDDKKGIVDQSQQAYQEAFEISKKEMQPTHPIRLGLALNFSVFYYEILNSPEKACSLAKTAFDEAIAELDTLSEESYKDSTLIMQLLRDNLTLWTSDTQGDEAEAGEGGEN
PCMT1, sequence (P22061 2-227 limits assumed): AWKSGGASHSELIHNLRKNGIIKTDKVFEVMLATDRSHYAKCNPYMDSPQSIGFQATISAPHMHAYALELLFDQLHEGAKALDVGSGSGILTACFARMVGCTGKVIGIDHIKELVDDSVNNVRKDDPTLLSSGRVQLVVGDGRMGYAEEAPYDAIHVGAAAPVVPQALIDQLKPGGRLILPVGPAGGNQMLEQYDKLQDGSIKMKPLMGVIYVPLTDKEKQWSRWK

Take “C-terminal FLAG tagged B3GNT2 (from UniProt Q9NY97 1-397) (enzyme)”: the co-IP mass spectrometry count with YWHAZ is 4; with ATP5F1B it was 4; with HBA1, 4; with SSR1, 4; with RPL36, 6; with PCMT1, 2. The co-IP mass spectrometry count with ACTR3 turned out to be 7; with ATXN2L, 5; with YBX3, 7; with RPN1 it was 7.
